The results in this text go back to paper PMC11485048.

The target of assay [1] is SpyTag-noro-VLP (norovirus-like particle of the capsid protein VP1 with a C-terminally fused SpyTag) (norovirus (genotype not stated)). In words: covalent SpyCatcher/SpyTag conjugation read by SDS-PAGE densitometry; SpyCatcher-P domain conjugated on SpyTag-noro-VLP as in the first experiment; nonconjugated antigen removed by size-exclusion chromatography (HiPrep 16/60 Sephacryl S-500 HR); second immunization experiment.

Assay [2] shares this target. In words: covalent SpyCatcher/SpyTag conjugation read by SDS-PAGE densitometry; SpyCatcher-antigen mixed with SpyTag-noro-VLP at 2:1 (P domain) or 4:1 (peptides) molar ratio, about 40 hours at +4 °C; unreacted SpyCatcher-antigen removed by dialysis through a 1000 kDa cut-off membrane; first immunization experiment.

On to “SpyCatcher-P domain fusion (furin P domain, residues 444-576) (from UniProt P09958 444-576)”, for which the conjugation efficiency (%) in assay [1] is 5%; in assay [2], 20%.
